Source: article PMC10130975

Biological target: human glycerol kinase (His-GK) (human) (UniProt P32189)
Test: native gel or EMSA; native-PAGE without the denaturants of SDS-PAGE; purified His-GK ran at ~100 kDa, against ~55 kDa by 10% SDS-PAGE

stoichiometry N: 2
Substance: human glycerol kinase (His-GK) (from UniProt P32189 1-559) (enzyme)
